Experimental data from US20190040156A1 (Eli Lilly, published 2019).

Assays:
[1] = biological target: non-cleavable form of human membrane TNFα on CHO cells (human, UniProt P01375 1-233); experiment: cell-based or functional assay
[2] = biological target: T1, human IL-23 (human, UniProt Q9NPF7 20-189; P29460 23-328); experiment: cell-based or functional assay
T1 sequence (looked up) 1: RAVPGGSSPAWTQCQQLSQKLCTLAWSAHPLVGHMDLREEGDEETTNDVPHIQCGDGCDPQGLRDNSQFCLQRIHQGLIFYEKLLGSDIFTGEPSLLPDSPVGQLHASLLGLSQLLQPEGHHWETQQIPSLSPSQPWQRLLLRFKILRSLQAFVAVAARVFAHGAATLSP
T1 sequence (looked up) 2: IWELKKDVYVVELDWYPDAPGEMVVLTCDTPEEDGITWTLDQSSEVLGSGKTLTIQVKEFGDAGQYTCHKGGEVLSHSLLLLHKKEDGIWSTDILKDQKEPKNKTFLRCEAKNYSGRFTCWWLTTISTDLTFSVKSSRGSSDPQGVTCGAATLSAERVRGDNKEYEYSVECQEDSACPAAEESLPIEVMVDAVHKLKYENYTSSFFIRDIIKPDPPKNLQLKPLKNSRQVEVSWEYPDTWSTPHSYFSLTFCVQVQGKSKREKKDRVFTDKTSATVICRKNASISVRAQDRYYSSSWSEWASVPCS

[3] = biological target: T2, human TNFα (human, UniProt P01375 77-233); experiment: cell-based or functional assay
T2 sequence (P01375 77-233 limits assumed): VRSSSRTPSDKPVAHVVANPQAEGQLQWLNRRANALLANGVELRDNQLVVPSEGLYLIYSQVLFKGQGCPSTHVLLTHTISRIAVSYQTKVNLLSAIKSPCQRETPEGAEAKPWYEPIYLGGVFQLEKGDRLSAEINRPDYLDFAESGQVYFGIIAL

[4] = biological target: human FcγRIIIa (V158) on Jurkat NFAT-FF reporter cells (human, UniProt P08637 17-254); experiment: cell-based or functional assay
Chain of human FcγRIIIa (V158) on Jurkat NFAT-FF reporter cells (P08637 17-254 F176V limits assumed): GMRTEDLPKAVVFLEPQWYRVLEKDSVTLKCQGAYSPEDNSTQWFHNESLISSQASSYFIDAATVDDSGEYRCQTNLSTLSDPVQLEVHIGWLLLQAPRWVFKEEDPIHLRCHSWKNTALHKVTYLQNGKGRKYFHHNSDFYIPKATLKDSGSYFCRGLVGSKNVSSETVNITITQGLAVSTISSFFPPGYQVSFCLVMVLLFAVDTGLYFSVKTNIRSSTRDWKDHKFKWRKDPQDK

[5] = biological target: T3, human FcγRI (CD64) (human, UniProt P12314 16-288, limits assumed); experiment: SPR, Biacore T200, antibody captured on protein A, FcγR as analyte, 37 °C, N=3
T3 construct: Soluble analyte in SPR
T3 sequence (P12314 16-288 limits assumed): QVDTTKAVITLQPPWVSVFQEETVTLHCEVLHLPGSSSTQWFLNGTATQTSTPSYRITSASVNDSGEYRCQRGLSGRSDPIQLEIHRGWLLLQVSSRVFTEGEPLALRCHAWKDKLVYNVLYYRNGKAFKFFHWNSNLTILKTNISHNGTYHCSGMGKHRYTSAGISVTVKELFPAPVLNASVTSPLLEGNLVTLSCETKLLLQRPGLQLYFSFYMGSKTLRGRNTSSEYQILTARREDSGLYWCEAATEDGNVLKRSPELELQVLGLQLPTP
Protocol: (§1) A CM5 chip (Biacore P/N BR-100-50) containing immobilized protein A (generated using standard NHS-EDC amine coupling) on all four flow cells is used to employ a capture methodology. IgG bispecific antibody samples are prepared by dilution of approximately 5 μg/mL into running buffer and approximately 300 RU is captured on the flow cells. Human FcγRI (produced from transient CHO cells and purified using IMAC and size exclusion chromatography) is prepared at final concentrations of 200.00, 100.00, 50.00, 25.00, 12.50, 6.25, 3.12, 1.56, and 0.78 nM by two-fold serial dilution into running buffer. Human FcγRIIa, FcγRIIb and FcγRIIIa (produced from transient CHO cells and purified using IMAC and size exclusion chromatography) are prepared at final concentrations of 10,000.0, 5,000, 2,500, 1,250, 625, 313, 157, 78, and 39 nM by two-fold serial dilution into running buffer.
(§2) Each analysis cycle consists of: (1) capturing antibody samples on flow cells; (2) injection of each human FcγRI, FcγRIIa, FcγRIIb and FcγRIIIa concentration over the flow cells at 40 μL/min for 60 seconds followed by return to buffer flow for 120 seconds to monitor dissociation phase; (3) regeneration of chip surfaces with injection of 10 mM glycine, pH 2.0. for 30 seconds at 50 μL/min over all flow cells; and (4) equilibration of chip surfaces with a 50 μL (60-sec) injection of HBS-EP+ running buffer. Data are processed using standard reference-subtracted method fit to a 1:1 binding model using Biacore T200 […] Evaluation software, version 1.0, to determine the equilibrium dissociation constant (KD) which is calculated from the relationship KD=koff/kₒₙ, and is in molar units.

[6] = biological target: T4, human FcγRIIa (CD32a) (human, UniProt P12318 34-217, limits assumed); experiment: as above
T4 construct: Soluble analyte in SPR
T4 sequence (looked up): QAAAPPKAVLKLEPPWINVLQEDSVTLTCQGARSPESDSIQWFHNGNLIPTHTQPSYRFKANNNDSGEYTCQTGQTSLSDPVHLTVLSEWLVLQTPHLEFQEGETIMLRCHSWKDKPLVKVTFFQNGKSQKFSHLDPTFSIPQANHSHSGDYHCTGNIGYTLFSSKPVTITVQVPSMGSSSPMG
Protocol: as §1, §2

[7] = biological target: T5, human FcγRIIb (CD32b) (human, UniProt P31994 43-217, limits assumed); experiment: as above
T5 construct: Soluble analyte in SPR
T5 sequence (looked up): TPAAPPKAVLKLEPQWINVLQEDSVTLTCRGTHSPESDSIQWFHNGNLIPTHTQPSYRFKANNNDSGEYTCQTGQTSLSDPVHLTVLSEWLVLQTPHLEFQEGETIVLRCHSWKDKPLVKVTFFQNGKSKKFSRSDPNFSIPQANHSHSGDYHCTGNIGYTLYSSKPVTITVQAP
Protocol: as §1, §2

[8] = biological target: T6, human FcγRIIIa (CD16a) (human, UniProt P08637 17-208); experiment: as above
T6 construct: Soluble analyte in SPR
T6 sequence (P08637 17-208 limits assumed): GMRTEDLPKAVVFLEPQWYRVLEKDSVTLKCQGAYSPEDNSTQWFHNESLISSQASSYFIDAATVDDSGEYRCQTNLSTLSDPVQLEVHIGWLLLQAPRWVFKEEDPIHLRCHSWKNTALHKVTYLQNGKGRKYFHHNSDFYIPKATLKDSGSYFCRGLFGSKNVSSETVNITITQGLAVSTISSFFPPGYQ
Protocol: as §1, §2

[9] = biological target: T1, human IL-23; experiment: SPR, Biacore T200, antibody captured on protein A, antigen as analyte, 37 °C, 1:1 model, n=3
Protocol: (§3) A CM4 chip (Biacore P/N BR-100534) containing immobilized protein A (generated using standard NHS-EDC amine coupling) on all four flow cells is used to employ a capture methodology. IgG bispecific antibody samples are prepared by dilution of 5 μg/mL into running buffer and approximately 100-150 RU is captured on the flow cells. […] Human TNFα are prepared at final concentrations of 50.0, 25.0, 12.5, 6.25, 3.12, 1.56, 0.78, 0.39, 0.19 and 0 (blank) nM by dilution into running buffer.
(§4) Each analysis cycle consists of (1) capturing antibody samples on flow cells (Fc3); (2) injection of each human IL-23 concentration over the flow cells at 80 μL/min for 200 seconds followed by return to buffer flow for 900 seconds to monitor dissociation phase; (3) injection of each human TNFα concentration over the flow cells at 80 µL/min for 200 seconds followed by return to buffer flow for 900 seconds to monitor dissociation phase; (4) regeneration of chip surfaces with injection of 10 mM glycine, pH 2.0, for 30 seconds at 50 μL/min over all flow cells; and (5) equilibration of chip surfaces with a 50 μL (60-sec) injection of HBS-EP+ running buffer. Data are processed using standard reference-subtracted method fit to a 1:1 binding model using Biacore T200 Evaluation software, version 1.0, to determine the association rate (kₒₙ, M⁻¹s⁻¹ units), dissociation rate (koff, s⁻¹ units), and RUₘₐₓ (RU units). The equilibrium dissociation constant (KD) is calculated from the relationship KD=koff/kₒₙ, and is in molar units.

[10] = biological target: T2, human TNFα; experiment: as above
Protocol: as §3, §4

[11] = biological target: T7, human complement component C1q (human, UniProt P02745 23-245; P02746 28-253; P02747 29-245); experiment: ELISA, antibody coated on the plate (10 to 0.19 µg/mL), human C1q at 10 µg/mL, anti-C1q-HRP detection
T7 construct: Bought protein; also called human C1q
T7 sequence (P02745 23-245 limits assumed, chain 1 of 3): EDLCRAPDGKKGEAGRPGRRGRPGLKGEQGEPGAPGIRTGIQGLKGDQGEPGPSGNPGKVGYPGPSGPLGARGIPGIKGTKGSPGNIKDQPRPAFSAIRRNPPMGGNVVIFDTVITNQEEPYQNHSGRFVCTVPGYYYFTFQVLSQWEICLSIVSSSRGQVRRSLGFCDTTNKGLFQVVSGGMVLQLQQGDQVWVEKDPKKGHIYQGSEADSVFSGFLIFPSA
T7 sequence (P02746 28-253 limits assumed, chain 2 of 3): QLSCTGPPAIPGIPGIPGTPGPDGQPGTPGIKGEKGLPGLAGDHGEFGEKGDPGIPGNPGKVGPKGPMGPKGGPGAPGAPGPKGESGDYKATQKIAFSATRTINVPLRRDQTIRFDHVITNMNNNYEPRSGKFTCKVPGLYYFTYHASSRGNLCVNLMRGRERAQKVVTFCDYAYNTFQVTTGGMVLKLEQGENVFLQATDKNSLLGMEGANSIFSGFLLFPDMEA
T7 sequence (P02747 29-245 limits assumed, chain 3 of 3): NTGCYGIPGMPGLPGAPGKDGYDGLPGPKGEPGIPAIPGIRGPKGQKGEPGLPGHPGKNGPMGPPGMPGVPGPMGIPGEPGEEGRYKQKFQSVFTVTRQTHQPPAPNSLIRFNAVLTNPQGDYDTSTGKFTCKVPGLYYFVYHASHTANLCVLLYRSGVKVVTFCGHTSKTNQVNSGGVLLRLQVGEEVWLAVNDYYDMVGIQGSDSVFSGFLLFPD
Protocol: Plates are incubated overnight at 4° C. with coating agent (to coat wells with antibody) followed with two hours of blocking (casein, 200 μL) at room temperature and then three washes with wash buffer (1×TBE with 0.05% Tween 20).
100 μL of human C1q (10 μg/mL) (MS Biomedical) in casein blocking reagent is added to each well and plates are incubated for 3 hours at room temperature. Following incubation plates are washed three times followed by addition of 100 μL/well (at 1:800 dilution) of Sheep anti-human C1q-HRP (Abcam #ab46191) in casein blocker. Plates are incubated for 1 hour at RT. Following incubation, plates are washed 6 times with wash buffer, and 100 μL/well of TMB Substrate (Pierce) is added to each well. Plates are incubated for 7 minutes followed by addition of 100 μL of 1.0N HC1 to each well to stop the reaction. Optical density is immediately measured using a colorimetric microplate reader set to 450 nm.

Chain of non-cleavable form of human membrane TNFα on CHO cells (P01375 whole entry): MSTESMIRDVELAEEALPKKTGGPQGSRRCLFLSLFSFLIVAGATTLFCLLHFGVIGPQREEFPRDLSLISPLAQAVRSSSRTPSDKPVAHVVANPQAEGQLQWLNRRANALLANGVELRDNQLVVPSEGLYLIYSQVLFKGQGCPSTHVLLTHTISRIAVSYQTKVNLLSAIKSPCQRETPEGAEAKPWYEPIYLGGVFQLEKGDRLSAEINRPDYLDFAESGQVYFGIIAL

B1: exemplified IgG bispecific antibody (anti-TNFα / anti-IL23p19) (bispecific antibody)
heavy 1: not shown
light 1: not shown
heavy 2: QVQLVQSGAEVKKPGSSVKVSCKASGYPFTRYVMHWVRKAPGQGLEWMGYINPYNDGVNYNEEFKGRVTITADTSTSTAYMELSSLRSEDTAVYYCARNWDTGLWGQGTTVTVSSASTKGPSVFPLAPSSKSTSGGTAALGCLVKDYFPEPVTVSWNSGALTSGVATGPAVLQSSGLYSLSSVVTVPSSSLGTQTYICNVNHKPSNTKVDKKVEPKSCDKTHTCPPCPAPELLGGPSVFLFPPKPKDTLMISRTPEVTCVVVDVSHEDPEVKFNWYVDGVEVHNAKTKPREEQYNSTYRVVSVLTVLHQDWLNGKEYKCKVSNKALPAPIEKTISKAKGQPREPQVSTLPPSREEMTKNQVSLMCLVYGFYPSDIAVEWESNGQPENNYKTTPPVLDSDGSFFLYSVLTVDKSRWQQGNVFSCSVMHEALHNHYTQKSLSLSPG
light 2: RIQMTQSPSSLSASVGDRVTITCKASDHIGKFLTWYQDKPGKAPKLLIYGATSKLTGVPSRFSGSGSGTDFTLTISSLQPEDFATYYCQQYWSTPFTFGGGTKVEIKGQPKAAPSVTLFPPSSEELQANKATLVCYISDFYPGAVTVAWKADSSPVKAGVETTTPSKQSNNKYAAWSYLSLTPEQWKSHRSYSCQVTHEGSTVEKTVAPTEC
modifications: N-terminal glutamine (residue 1) may be converted to pyroglutamic acid; C-terminal lysine (residue 445) may be truncated post-translationally; C-terminal lysine (residue 451) may be truncated post-translationally
notes: Heterodimeric IgG1 of four different chains; also called exemplified bispecific antibody; IgG bispecific antibody of the present invention
IC50, inhibition of killing of L929 cells by CHO cells carrying non-cleavable membrane bound human TNFα (MTT) [1]: 3.99 nM
relative EC50, human complement-mediated effector function (CDC) on CHO cells carrying non-cleavable human membrane TNFα (T74E construct as internal standard = 1) [1]: 0.74 relative to internal standard
IC50, inhibition of IL-23-induced Stat 3 phosphorylation (luciferase) in Kit225 cells [2]: 0.066 pM
IC50, inhibition of soluble human TNFα-induced killing of L929 cells (MTT) [3]: 0.32 nM
Relative EC50, induction of FcγRIIIa-mediated effector function (NFAT luciferase in Jurkat cells with CHO cells carrying non-cleavable human membrane TNFα; T74E construct as internal standard = 1) [4]: 0.75 relative to internal standard
Kd [5]: 0.0648 nM
Kd [6]: 720 nM
Kd [7]: 4000 nM
Kd [8]: 260 nM
Kd [9]: 0.245 nM
koff [9]: 0.000101 s⁻¹
kon [9]: 412000 M⁻¹ s⁻¹
Kd [10]: 0.0496 nM
koff [10]: 0.000155 s⁻¹
kon [10]: 3.1e+06 M⁻¹ s⁻¹
binding result [11]: binds
